Biological target: BF520 Env 637K (HIV-1)

PGT151 (antibody) showed a maximum percent neutralization, TZM-bl pseudovirus neutralization by PGT151 of 59%.
